The test system of the series is ArgR (arginine repressor) (Escherichia coli). Nature of the series: EMSA. The following applies: EMSA essentially as Burke et al. 1994 with 1 mM L-arginine; ArgR dilution buffer 20 mM Tris-HCl pH 8.2, 20 mM MgCl2, 150 mM NaCl, 5 mM DTT, 1 ug/ml BSA, 0.01% …. (A gel shift assay detects complexes by their altered migration in electrophoresis.)

The substance cer 190 bp Arg-box fragment had a K half of 10 nM. In the case of “loxP 198 bp fragment (P1 putative Arg-box)” it was greater than 200 nM.
